PMC4503980 (Scientific Reports, 2015)
Ends that are not written are not given here. Peptide text beside a SMILES is read from it. * marks the point of attachment. 5TAMRA = CN(C)c1ccc2c(c1)Oc1cc(N(C)C)ccc1C21OC(=O)c2cc(C(=O)*)ccc21

Assays:
[1] = molecular target: PDZ1-2 (61-249) from PSD-95 (human); experiment: fluorescence polarisation; inhibition of TAMRA-Cnskr2 (5 nM)/PDZ2 (1.5 μM) or PDZ1-2 (1 μM) by increasing unlabelled nNOS-PDZ or GluN2B-C5; 1 x TBS pH 7.4; Ki calculated from IC50
[2] = molecular target: PDZ2 (155-249) from PSD-95 (human); experiment: as above
[3] = molecular target: Cy5-Nav1.4; experiment: fluorescence polarisation; saturation binding: increasing PDZ domain protein (typically 0-150 μM) added to a fixed low concentration of TAMRA- or Cy5-labelled probe (5 or 50 nM); 1 x TBS (150 mM NaCl, 10 mM Tris, pH 7.4), 10-15 min, room temperature
[4] = molecular target: TAMRA-Cnskr2; experiment: as above
[5] = molecular target: T1, PSD-95-PDZ1-2 (Homo sapiens, UniProt P78352); experiment: FP saturation and inhibition, TAMRA-Cnskr2 / PSD-95-PDZ1-2; format: binding; conditions: TAMRA-Cnskr2 5 nM
T1 construct: PDZ1-2 (61-249); made in house; host or cells: E. coli BL21-DE3 pLysS
Description: (§1) First we tested a series of 23 fluorescent-labelled C-terminal peptide ligands (Supplementary Table S1) derived from PDZ-interacting proteins in order to find a probe with good activity towards the PSD-95 PDZ domains and no or little activity against nNOS-PDZ (Supplementary Fig. S1). The Cnskr2 probe fulfilled these selectivity criteria and was used to generate saturation curves with PDZ2 and PDZ1-2 of PSD-95 (Fig. 4a). […] Next, fixed concentrations of TAMRA-Cnskr2, PSD-95-PDZ2/1-2, and nNOS-PDZ were applied, corresponding to the conditions at IC50 of the nNOS-PDZ inhibition curve (Fig. 4b) where sensitivity of the assay is greatest. […] Here, we used the Sapk3-peptide as it has the desired high affinity to α1-Syntrophin-PDZ and low affinity to nNOS-PDZ (Supplementary Fig. S1).
(§2) The minor increases in mP at high concentrations, 260-2900 μM, were due to fluorescence artefacts.
(§3) Incubation time was 10–15 minutes (room temperature), and the assay was performed in a 1 × TBS buffer (150 mM NaCl, 10 mM Tris, pH 7.4) using black flat-bottom 384-well plates (Corning Life Sciences, NY) and a Safire2 plate-reader (Tecan, Männedorf, Switzerland). […] TAMRA- and Cy5-probes were measured at excitation/emission values of 530/585 nm (bandwidth = 20 nm) and 635/670 nm (bandwidth = 15 nm), respectively. […]

[6] = molecular target: T2, nNOS-PDZ (Homo sapiens, UniProt P29475); experiment: FP saturation, TAMRA-Cnskr2 / nNOS-PDZ; format: binding; conditions: TAMRA-Cnskr2 5 nM, read-out: Kd probe / nNOS-PDZ
T2 construct: nNOS-PDZ (12–130, human); made in house; host or cells: E. coli
Description: as §1, §2, §3

[7] = molecular target: T3, PSD-95-PDZ2 (Homo sapiens, UniProt P78352); experiment: FP saturation and inhibition, TAMRA-Cnskr2 / PSD-95-PDZ2; format: binding; set-up: PDZ2 (155-249); made in house; host or cells: E. coli BL21-DE3 pLysS; conditions: TAMRA-Cnskr2 5 nM
Description: as §1, §2, §3

[8] = molecular target: PDZ1 (61-151) from PSD-95 (human); experiment: fluorescence polarisation; 'direct' FP inhibition assay: TAMRA-nNOS (5 nM) with fixed PDZ1 (7.5 μM), PDZ2 (2.5 μM) or PDZ1-2 (0.3 μM); increasing control compound; 1 x TBS pH 7.4
[9] = molecular target: PDZ2 (155-249) from PSD-95 (human); experiment: as above
[10] = molecular target: T4, extended Mus musculus nNOS-PDZ (residues 12-134) (Mus musculus, UniProt Q9Z0J4 12-134); experiment: ITC; 25 °C, 20 mM phosphate buffer pH 6.3; 100 μM PDZ2 in the cell titrated with 750 μM nNOS-PDZ; one-site model; conditions: both partners purified
T4 construct: neuronal nitric oxide synthase (nNOS), Mus musculus, extended PDZ domain, residues 12-134, Uniprot Q9JJ30; Construct of the ITC and NMR experiments; 15N-labelled in some NMR samples; also called extended nNOS-PDZ; source: sub-cloned into pETM11, expressed and purified following a similar protocol to that of PSD-95-PDZ2

[11] = molecular target: T3, PSD-95-PDZ2; experiment: ITC titration into PSD-95-PDZ2; format: binding; set-up: PSD-95-PDZ2 (157–249, human); made in house
Description: Unlike the FP experiments above, which rely on inhibition of interaction partners, the ITC method is a direct measure of binding, regardless of where it takes place on the protein.
Figure 5 ITC curves. Plots showing titrations into PDZ domains fitted to a one-site model.
For isothermal titration calorimetry (ITC) and NMR, PSD-95-PDZ2 (157–249, human) was expressed and purified as described previously. The sequence for the extended Mus musculus nNOS-PDZ (residues 12–134, Uniprot Q9JJ30) was sub-cloned into a pETM11 vector using cloning sites Nco1 and Kpn1, and the protein was expressed and purified following a similar protocol to that used for the production of PSD-95-PDZ2.
All ITC experiments were carried out at 25 °C on an iTC200 Microcalorimeter (GE Healthcare) with a 200 μL cell capacity and 40 μL syringe volume. The buffer used for all solutions was 20 mM phosphate buffer at pH 6.3; each experiment consisted of an initial injection of 0.5 μL, followed by fifteen 2.39 μL injections before a final injection of 1.89 μL. […] In both cases no heat exchange was detected, confirming that there was appropriate match of buffer conditions with no indication of dilution effects. […] For the nNOS-PDZ/PSD-95-PDZ2 interaction, 100 μM PDZ2 in the cell was titrated with 750 μM nNOS-PDZ. […] All data was analysed using the Origin®7 software programme.

[12] = ITC, nNOS-PDZ titrated into PSD-95-PDZ2

Molecule: nNOS-PDZ (12-130, human) (from UniProt P29475 12-130) (domain or fragment)
- Ki [1]: 0.81 µM
- Ki [2]: 0.088 µM
- Kd [3]: 20 µM
- Kd [4]: > 190 µM

Molecule: CC[C@H](C)[C@H](NC(=O)[C@H](Cc1ccc(O)cc1)NC(=O)[C@H](CO)NC(=O)[C@H](Cc1c[nH]cn1)NC(=O)[C@@H](NC(=O)[C@H](Cc1c[nH]cn1)NC(=O)CNC(=O)[C@H](CC(N)=O)NC(=O)[C@H](CC(N)=O)NC(=O)c1ccc2c(c1)C(=O)OC21c2ccc(N(C)C)cc2Oc2cc(N(C)C)ccc21)[C@@H](C)O)C(=O)N[C@@H](CCC(=O)O)C(=O)N[C@H](C(=O)N[C@@H](Cc1c[nH]cn1)C(=O)N[C@H](C(=O)O)C(C)C)[C@@H](C)O [TAMRA-Cnskr2] (5TAMRA-NNGHTHSYIETHV-OH)
- Kd ([5]; saturation, read-out: Kd probe / PSD-95-PDZ1-2): 1.1 ± 0.1 µM
- Kd [6]: > 190 µM
- Kd ([7]; saturation, read-out: Kd probe / PSD-95-PDZ2): 0.38 ± 0.03 µM

B1: N-cyclohexylethyl-ETAV (peptide)
peptide: {N‑cyclohexylethyl}-ETAV
- Ki [8]: 3.9 µM
- Ki [9]: 2 µM

B2: PSD-95-PDZ2 (157-249, human) (domain or fragment, UniProt P78352 157-249, looked up)
chain: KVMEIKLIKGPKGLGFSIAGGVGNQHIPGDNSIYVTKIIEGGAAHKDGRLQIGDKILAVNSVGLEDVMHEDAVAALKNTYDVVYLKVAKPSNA
notes: PSD-95, human, PDZ2 domain, residues 157-249; Construct of the ITC and NMR experiments; 15N-labelled in some NMR samples
- Kd [10]: ~0.67 µM

B3: nNOS-PDZ: recombinant extended PDZ domain of nNOS (12–130 human for FP; 12–134 Mus musculus for ITC/NMR) (protein, UniProt P29475 12-130, looked up, fragment)
chain: QPNVISVRLFKRKVGGLGFLVKERVSKPPVIISDLIRGGAAEQSGLIQAGDIILAVNGRPLVDLSYDSALEVLRGIASETHVVLILRGPEGFTTHLETTFTGDGTPKTIRVTQPLGPPT
- Ki ([5]; PDZ1-2 1 μM): 0.81 ± 0.023 µM
- Kd ([11]; 100 μM PDZ2 in cell titrated with 750 μM nNOS-PDZ, pH 6.3, 25 °C): ~0.67 µM
- N (stoichiometry ratio) [11, 12]: 1.0
- T∆S [11, 12]: ~28 kJ/mol
- ∆H [11, 12]: ~-7.11 kJ/mol
- Ki ([7]; PDZ2 […]): 0.088 ± 0.014 µM
